In US20060241020A1, “Protein tyrosine phosphatase inhibitors” (Applied Research Systems ARS Holdings N.V., priority 2002, published 2006) one finds Km data, which are given here for 1 molecule.

The series can be described thus: pNPP hydrolysis, kinetic parameters. Particulars: generic substrate pNPP, 0-60 mM, pH 6.8, room temperature. It is filed as biochemical. The protocol:
For pNPP hydrolysis, 200 ng of PTP was incubated with varing amounts of the generic substrate (0-60 mM) in assay buffer (50 mM Tris pH 6.8 and 2 mM DTT) in a total volume of 50 μl at room temperature. Plates were read at 405 nm and kinetic parameters were determined using a non linear regression programme (Graphpad, Prism®).

B1: Sap-1WT: wild-type PTP-Sap1 catalytic domain (GST fusion) tested on pNPP (protein)
chain: LKRRNKKKQQKPELRDLVFSSPGDIPAEDFADHVRKNERDSNCGFADEYQQLSLVGHSQSQMVASASENNAKNRYRNVLPYDWSRVPLKPIHEEPGSDYINASFMPGLWSPQEFIATQGPLPQTVGDFWRLVWEQQSHTLVMLTNCMEAGRVKCEHYWPLDSQPCTHGHLRVTLVGEEVMENWTVRELLLLQVEEQKTLSVRQFHYQAWPDHGVPSSPDTLLAFWRMLRQWLDQTMEGGPPIVHCSAGVGRTGTLIALDVLLRQLQSEGLLGPFSFVRKMRESRPLMVQTEAQYVFLHQCILRFLQQSAQAPAEKEVPYEDVENLIYENVAAIQAHKLEV
modifications: left off: a dimerising Fc or GST
notes: wild-type PTP-Sap1 catalytic domain (GST fusion) tested on pNPP
For the molecule B1, the Km came out at 2660 µM.
